Consider 3 molecules from US20100087368A1.

In data set [1] the target is rat Protein C (rat) (UniProt P31394). Put plainly: cell-based or functional assay.
Data set [2] addresses T1, human soluble thrombomodulin (human sTM).
T1 chain: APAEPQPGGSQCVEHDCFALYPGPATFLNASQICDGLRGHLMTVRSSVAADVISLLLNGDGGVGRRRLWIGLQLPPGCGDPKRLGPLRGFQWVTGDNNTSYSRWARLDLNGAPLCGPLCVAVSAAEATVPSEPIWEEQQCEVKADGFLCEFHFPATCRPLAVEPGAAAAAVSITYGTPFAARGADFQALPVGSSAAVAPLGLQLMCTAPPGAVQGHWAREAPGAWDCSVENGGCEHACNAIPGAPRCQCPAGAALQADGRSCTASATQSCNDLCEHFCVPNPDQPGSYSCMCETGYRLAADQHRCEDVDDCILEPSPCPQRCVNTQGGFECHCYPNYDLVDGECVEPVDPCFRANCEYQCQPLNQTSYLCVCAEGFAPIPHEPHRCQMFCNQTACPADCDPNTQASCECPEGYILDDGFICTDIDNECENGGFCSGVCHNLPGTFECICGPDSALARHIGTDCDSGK

The target of data set [3] is T2, rat soluble thrombomodulin (rat sTM).
T2 chain: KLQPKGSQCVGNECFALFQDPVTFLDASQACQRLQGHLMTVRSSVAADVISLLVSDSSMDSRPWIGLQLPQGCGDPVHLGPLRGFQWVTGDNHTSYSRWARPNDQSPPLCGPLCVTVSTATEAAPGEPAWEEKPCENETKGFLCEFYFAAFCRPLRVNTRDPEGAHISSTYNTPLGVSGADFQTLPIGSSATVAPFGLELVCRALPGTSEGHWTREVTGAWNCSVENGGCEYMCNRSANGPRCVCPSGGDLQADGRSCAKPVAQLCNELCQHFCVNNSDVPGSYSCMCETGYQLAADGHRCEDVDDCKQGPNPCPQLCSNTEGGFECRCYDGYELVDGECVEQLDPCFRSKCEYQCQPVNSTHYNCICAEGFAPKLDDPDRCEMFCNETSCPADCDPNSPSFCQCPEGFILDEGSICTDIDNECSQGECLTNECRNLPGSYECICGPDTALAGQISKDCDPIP

The target of data set [4] is T3, human sTM variant F376L.
T3 chain: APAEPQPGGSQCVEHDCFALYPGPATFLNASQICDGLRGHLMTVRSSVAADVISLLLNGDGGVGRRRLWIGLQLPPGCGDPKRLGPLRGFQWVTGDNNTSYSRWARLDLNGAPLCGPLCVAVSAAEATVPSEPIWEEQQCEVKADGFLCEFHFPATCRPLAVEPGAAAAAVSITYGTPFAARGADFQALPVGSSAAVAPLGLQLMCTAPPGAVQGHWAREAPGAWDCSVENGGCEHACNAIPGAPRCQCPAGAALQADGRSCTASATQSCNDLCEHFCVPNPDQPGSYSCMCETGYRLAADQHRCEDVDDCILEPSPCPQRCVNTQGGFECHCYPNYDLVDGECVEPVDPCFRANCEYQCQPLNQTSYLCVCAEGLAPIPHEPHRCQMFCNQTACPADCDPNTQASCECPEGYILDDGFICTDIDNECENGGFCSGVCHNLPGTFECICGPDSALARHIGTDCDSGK

As for “endogenous human thrombomodulin on human aortic endothelial cells (from UniProt P07204 19-575)”, in data set [1], the percent PC activation in the presence of human thrombin, against human thrombin with human Protein C as 100% (human aortic endothelial cells, chromogenic substrate) came out at 12.8%.

Turning to “endogenous human thrombomodulin on human aortic endothelial cells (from UniProt P07204 19-575) (receptor)”, the percent PC activation in the presence of rat thrombin, against human thrombin with human Protein C as 100% (human aortic endothelial cells, chromogenic substrate) in data set [1] came to 0%.

B1: rat Protein C (protein)
chain: ANSFLEEVRAGSLERECMEEICDFEEAQEIFQNVEDTLAFWIKYFDGDQCSTPPLDHQCDSPCCGHGTCIDGLGGFSCSCDKGWEGRFCQQEMGFQDCRVKNGGCYHYCLEETRGRRCRCAPGYELADDHMHCRPTVNFPCGKLWKRTDKKRKNFKRDIDPEDEELELGPRIVNGTLTKQGDSPWQAILLDSKKKLACGGVLIHTSWVLTAAHCLESSKKLTVRLGEYDLRRRDPWELDLDIKEVLVHPNYTRSNSDNDIALLRLSQPATLSKTIVPICLPNSGLAQELSQAGQETVVTGWGYQSDKVKDGRRNRTFILTFIRIPLAARNDCMQVMNNVVSENMLCAGIIGDTRDACDGDSGGPMVVFFRGTWFLVGLVSWGEGCGHLNNYGVYTKVGSYLKWIHSYIGERDVSLKSPKL
In the case of B1, the Vmax(mOD405/min) of rat Protein C activation in the presence of rat thrombin (chromogenic substrate S2366) is 3.1 mOD405/min in data set [2], 47.1 mOD405/min in data set [3] and “TLD” in data set [4].
